Experimental data from patent publication US20260167721A1 (ABLEXIS, published 2026).

Columns and labels:
[1] = biological target: T1, CD3 on human donor PBMC / Pan T effector cells (human, UniProt P07766 23-207; P09693 23-182; P04234 22-171; P20963 22-164); assay: cell-based or functional assay
[2] = biological target: T1, CD3 on human donor PBMC / Pan T …; assay: cell-based or functional assay; remark: listed apart in the source

T1 sequence (P07766 23-207, chain 1 of 4): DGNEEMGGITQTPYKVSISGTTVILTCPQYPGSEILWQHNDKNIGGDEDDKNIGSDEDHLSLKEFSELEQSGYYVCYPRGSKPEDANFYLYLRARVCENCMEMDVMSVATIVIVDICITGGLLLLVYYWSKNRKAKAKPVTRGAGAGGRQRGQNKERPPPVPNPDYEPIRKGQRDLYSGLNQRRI
T1 sequence (P09693 23-182, chain 2 of 4): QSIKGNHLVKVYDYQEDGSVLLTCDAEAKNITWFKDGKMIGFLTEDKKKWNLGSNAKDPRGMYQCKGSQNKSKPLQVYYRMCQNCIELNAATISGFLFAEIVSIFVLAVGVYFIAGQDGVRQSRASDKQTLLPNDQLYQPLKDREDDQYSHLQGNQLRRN
T1 sequence (P04234 22-171, chain 3 of 4): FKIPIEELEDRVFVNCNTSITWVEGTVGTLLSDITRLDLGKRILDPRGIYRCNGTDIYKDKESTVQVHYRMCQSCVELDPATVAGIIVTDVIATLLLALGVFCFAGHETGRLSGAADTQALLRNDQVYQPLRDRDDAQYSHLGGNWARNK
T1 sequence (P20963 22-164, chain 4 of 4): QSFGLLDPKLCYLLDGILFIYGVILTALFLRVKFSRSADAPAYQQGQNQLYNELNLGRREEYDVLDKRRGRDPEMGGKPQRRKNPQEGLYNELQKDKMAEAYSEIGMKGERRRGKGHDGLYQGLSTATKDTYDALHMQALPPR

| Cytokine Release Assay (TNFα) Donor 0 gMFI max [1] [gMFI] | Cytokine Release Assay (TNFα) Donor 1 gMFI max [1] [gMFI] | Cytokine Release Assay (TNFα) Donor 2 EC50 [1] [nM] | Cytokine Release Assay (TNFα) Donor 2 gMFI max [1] [gMFI] | Cytokine Release Assay (TNFα) Donor 3 gMFI max [1] [gMFI] | Cytokine Release Assay (IL2) Donor 0 EC50 [2] [nM] | Cytokine Release Assay (IL2) Donor 0 gMFI max [2] [gMFI] | Cytokine Release Assay (IL2) Donor 1 gMFI max [2] [gMFI] | Cytokine Release Assay (IL2) Donor 2 EC50 [2] [nM] | Cytokine Release Assay (IL2) Donor 2 gMFI max [2] [gMFI] | Cytokine Release Assay (IL2) Donor 3 EC50 [2] [nM] | Cytokine Release Assay (IL2) Donor 3 gMFI max [2] [gMFI] | Cytokine Release Assay (TNFα) Donor 0 EC50 [1] [nM] | Cytokine Release Assay (TNFα) Donor 3 EC50 [1] [nM] | Cytokine Release Assay (IL2) Donor 1 EC50 [2] [nM] | Binder |
| --- | --- | --- | --- | --- | --- | --- | --- | --- | --- | --- | --- | --- | --- | --- | --- |
| 44100 | 5470 | 0.396 | 16700 | 28200 | 3.03 | 65500 | 24400 | 0.0725 | 30900 | 2.16 | 127000 | – | – | – | CD3 × CD33-BspAb71 (bispecific antibody) chain 1: EVQLVESGGGLVKPGGSLRLSCAASGFTFSSYSMNWVRQAPGKCLEWVSSISRSSSYIYYADSVKGRFTLSRDNAKNSLYLQMNSLRGEDTAIYYCGRDGKGAIFLDYWGQGTLVTVSSGGGGSGGGGSGGGGSGGGGSSYELTQPPSVSVSPGQTARITCSGDALPKKYAYWYQQKSGQAPVLVIYEDSKRPSGIPERFSGSSSGTMATLTISGAQVEDEADYYCYSTHSSGNHRVFGCGTKLTVLDKTHTCPPCPAPEFEGGPSVFLFPPKPKDTLMISRTPEVTCVVVDVSHEDPEVKFNWYVDGVEVHNAKTKPREEQYNSTYRVVSVLTVLHQDWLNGKEYKCKVSNKALPASIEKTISKAKGQPREPQVYTLPPCREEMTKNQVSLWCLVKGFYPSDIAVEWESNGQPENNYKTTPPVLDSDGSFFLYSKLTVDKSRWQQGNVFSCSVMHEALHNHYTQKSLSLSPGK chain 2: EVQLVQSGAEVKKPGSSVKVSCKASGYTITDSNIHWVRQAPGQSLEWIGYIYPYNGGTDYNQKFKNRATLTVDNPTNTAYMELSSLRSEDTAFYYCVNGNPWLAYWGQGTLVTVSSASTKGPSVFPLAPSSKSTSGGTAALGCLVKDYFPEPVTVSWNSGALTSGVHTFPAVLQSSGLYSLSSVVTVPSSSLGTQTYICNVNHKPSNTKVDKRVEPKSCDKTHTCPPCPAPEFEGGPSVFLFPPKPKDTLMISRTPEVTCVVVDVSHEDPEVKFNWYVDGVEVHNAKTKPREEQYNSTYRVVSVLTVLHQDWLNGKEYKCKVSNKALPASIEKTISKAKGQPREPQVCTLPPSREEMTKNQVSLSCAVKGFYPSDIAVEWESNGQPENNYKTTPPVLDSDGSFFLVSKLTVDKSRWQQGNVFSCSVMHEALHNRFTQKSLSLSPGK chain 3: DIQLTQSPSTLSASVGDRVTITCRASESLDNYGIRFLTWFQQKPGKAPKLLMYAASNQGSGVPSRFSGSGSGTEFTLTISSLQPDDFATYYCQQTKEVPWSFGQGTKVEVKRTVAAPSVFIFPPSDEQLKSGTASVVCLLNNFYPREAKVQWKVDNALQSGNSQESVTEQDSKDSTYSLSSTLTLSKADYEKHKVYACEVTHQGLSSPVTKSFNRGEC |
| 18000 | 4930 | 0.155 | 9080 | 13600 | 0.45 | 23200 | 19000 | 0.0909 | 16800 | 0.198 | 27200 | 0.61 | 0.685 | 0.384 | CD3 × CD33-BspAb116 (bispecific antibody) chain 1: NFMLTQPHSVSESPGKTVTISCTRSSGSIASNYVQWYQQRPGSSPTTVIYEDNQRPSGVPDRFSGSIDSSSNSASLTISGLKTEDEAYYYCQSFDSSNRVFGCGTKLTVLGGGGSGGGGSGGGGSGGGGSQVQLQESGPGLVKPSQTLSLTCTVSGGSISSGGYYWSWIRQHPGKCLEWIGYIYYSGSTYYNPSLKSRVTISVDTSKDQFSLKLSSVTAADTAVYYCARERKTSLPFDIWGQGTMVTVSSDKTHTCPPCPAPEFEGGPSVFLFPPKPKDTLMISRTPEVTCVVVDVSHEDPEVKFNWYVDGVEVHNAKTKPREEQYNSTYRVVSVLTVLHQDWLNGKEYKCKVSNKALPASIEKTISKAKGQPREPQVYTLPPCREEMTKNQVSLWCLVKGFYPSDIAVEWESNGQPENNYKTTPPVLDSDGSFFLYSKLTVDKSRWQQGNVFSCSVMHEALHNHYTQKSLSLSPGK chain 2: EVQLVQSGAEVKKPGSSVKVSCKASGYTITDSNIHWVRQAPGQSLEWIGYIYPYNGGTDYNQKFKNRATLTVDNPTNTAYMELSSLRSEDTAFYYCVNGNPWLAYWGQGTLVTVSSASTKGPSVFPLAPSSKSTSGGTAALGCLVKDYFPEPVTVSWNSGALTSGVHTFPAVLQSSGLYSLSSVVTVPSSSLGTQTYICNVNHKPSNTKVDKRVEPKSCDKTHTCPPCPAPEFEGGPSVFLFPPKPKDTLMISRTPEVTCVVVDVSHEDPEVKFNWYVDGVEVHNAKTKPREEQYNSTYRVVSVLTVLHQDWLNGKEYKCKVSNKALPASIEKTISKAKGQPREPQVCTLPPSREEMTKNQVSLSCAVKGFYPSDIAVEWESNGQPENNYKTTPPVLDSDGSFFLVSKLTVDKSRWQQGNVFSCSVMHEALHNRFTQKSLSLSPGK chain 3: DIQLTQSPSTLSASVGDRVTITCRASESLDNYGIRFLTWFQQKPGKAPKLLMYAASNQGSGVPSRFSGSGSGTEFTLTISSLQPDDFATYYCQQTKEVPWSFGQGTKVEVKRTVAAPSVFIFPPSDEQLKSGTASVVCLLNNFYPREAKVQWKVDNALQSGNSQESVTEQDSKDSTYSLSSTLTLSKADYEKHKVYACEVTHQGLSSPVTKSFNRGEC |

More lines, now with the values behind:

| Binder | Cytokine Release Assay (TNFα) Donor 0 gMFI max [1] [gMFI] | Cytokine Release Assay (TNFα) Donor 1 gMFI max [1] [gMFI] | Cytokine Release Assay (TNFα) Donor 2 EC50 [1] [nM] | Cytokine Release Assay (TNFα) Donor 2 gMFI max [1] [gMFI] | Cytokine Release Assay (TNFα) Donor 3 gMFI max [1] [gMFI] | Cytokine Release Assay (IL2) Donor 0 EC50 [2] [nM] | Cytokine Release Assay (IL2) Donor 0 gMFI max [2] [gMFI] | Cytokine Release Assay (IL2) Donor 1 gMFI max [2] [gMFI] | Cytokine Release Assay (IL2) Donor 2 EC50 [2] [nM] | Cytokine Release Assay (IL2) Donor 2 gMFI max [2] [gMFI] | Cytokine Release Assay (IL2) Donor 3 EC50 [2] [nM] | Cytokine Release Assay (IL2) Donor 3 gMFI max [2] [gMFI] | Cytokine Release Assay (TNFα) Donor 0 EC50 [1] [nM] | Cytokine Release Assay (TNFα) Donor 3 EC50 [1] [nM] | Cytokine Release Assay (IL2) Donor 1 EC50 [2] [nM] |
| --- | --- | --- | --- | --- | --- | --- | --- | --- | --- | --- | --- | --- | --- | --- | --- |
| CD3 × CD33-BspAb37 (bispecific antibody) chain 1: not shown chain 2: EVQLVQSGAEVKKPGSSVKVSCKASGYTITDSNIHWVRQAPGQSLEWIGYIYPYNGGTDYNQKFKNRATLTVDNPTNTAYMELSSLRSEDTAFYYCVNGNPWLAYWGQGTLVTVSSASTKGPSVFPLAPSSKSTSGGTAALGCLVKDYFPEPVTVSWNSGALTSGVHTFPAVLQSSGLYSLSSVVTVPSSSLGTQTYICNVNHKPSNTKVDKRVEPKSCDKTHTCPPCPAPEFEGGPSVFLFPPKPKDTLMISRTPEVTCVVVDVSHEDPEVKFNWYVDGVEVHNAKTKPREEQYNSTYRVVSVLTVLHQDWLNGKEYKCKVSNKALPASIEKTISKAKGQPREPQVCTLPPSREEMTKNQVSLSCAVKGFYPSDIAVEWESNGQPENNYKTTPPVLDSDGSFFLVSKLTVDKSRWQQGNVFSCSVMHEALHNRFTQKSLSLSPGK chain 3: DIQLTQSPSTLSASVGDRVTITCRASESLDNYGIRFLTWFQQKPGKAPKLLMYAASNQGSGVPSRFSGSGSGTEFTLTISSLQPDDFATYYCQQTKEVPWSFGQGTKVEVKRTVAAPSVFIFPPSDEQLKSGTASVVCLLNNFYPREAKVQWKVDNALQSGNSQESVTEQDSKDSTYSLSSTLTLSKADYEKHKVYACEVTHQGLSSPVTKSFNRGEC | 48300 | 5610 | 0.0832 | 15800 | 31600 | 0.18 | 69200 | 26800 | 0.141 | 34800 | 0.181 | 104000 | 0.165 | 0.222 | 0.437 |
| CD3 × CD33-BspAb38 (bispecific antibody) chain 1: not shown chain 2: EVQLVQSGAEVKKPGSSVKVSCKASGYTITDSNIHWVRQAPGQSLEWIGYIYPYNGGTDYNQKFKNRATLTVDNPTNTAYMELSSLRSEDTAFYYCVNGNPWLAYWGQGTLVTVSSASTKGPSVFPLAPSSKSTSGGTAALGCLVKDYFPEPVTVSWNSGALTSGVHTFPAVLQSSGLYSLSSVVTVPSSSLGTQTYICNVNHKPSNTKVDKRVEPKSCDKTHTCPPCPAPEFEGGPSVFLFPPKPKDTLMISRTPEVTCVVVDVSHEDPEVKFNWYVDGVEVHNAKTKPREEQYNSTYRVVSVLTVLHQDWLNGKEYKCKVSNKALPASIEKTISKAKGQPREPQVCTLPPSREEMTKNQVSLSCAVKGFYPSDIAVEWESNGQPENNYKTTPPVLDSDGSFFLVSKLTVDKSRWQQGNVFSCSVMHEALHNRFTQKSLSLSPGK chain 3: DIQLTQSPSTLSASVGDRVTITCRASESLDNYGIRFLTWFQQKPGKAPKLLMYAASNQGSGVPSRFSGSGSGTEFTLTISSLQPDDFATYYCQQTKEVPWSFGQGTKVEVKRTVAAPSVFIFPPSDEQLKSGTASVVCLLNNFYPREAKVQWKVDNALQSGNSQESVTEQDSKDSTYSLSSTLTLSKADYEKHKVYACEVTHQGLSSPVTKSFNRGEC | 28500 | 4840 | 4.03 | 10100 | 17900 | 6.63 | 39300 | 16200 | 1.73 | 19200 | 1.84 | 45900 | 6.01 | 5.95 | 2.87 |
